Results on two molecules are retold here after patent US20130149236A1 (MacroGenics, published 2013).

One test concerns the target T1, soluble B7H3-4Ig (human, UniProt Q5ZPR3 29-466).
T1 construct: Soluble or immobilized 4Ig form; also called 4Ig-B7-H3
T1 sequence: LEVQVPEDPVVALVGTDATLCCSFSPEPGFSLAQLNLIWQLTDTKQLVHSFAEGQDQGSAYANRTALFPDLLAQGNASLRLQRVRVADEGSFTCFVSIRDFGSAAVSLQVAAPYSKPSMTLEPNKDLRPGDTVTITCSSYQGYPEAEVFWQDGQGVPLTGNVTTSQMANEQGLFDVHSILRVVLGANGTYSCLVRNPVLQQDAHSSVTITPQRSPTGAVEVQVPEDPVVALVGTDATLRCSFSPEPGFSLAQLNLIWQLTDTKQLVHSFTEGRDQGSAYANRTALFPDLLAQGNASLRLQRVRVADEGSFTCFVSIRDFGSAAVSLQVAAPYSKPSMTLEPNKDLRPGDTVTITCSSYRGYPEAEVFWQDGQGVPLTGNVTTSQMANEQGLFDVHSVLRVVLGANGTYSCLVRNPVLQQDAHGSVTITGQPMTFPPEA
As to the kind of experiment: Specificity.

The target of the next test is T2, soluble B7H3-2Ig (human, UniProt Q5ZPR3 29-466).
T2 construct: Soluble or immobilized 2Ig form; also called 2Ig-B7-H3; B7-H3 (2Ig form)
T2 sequence: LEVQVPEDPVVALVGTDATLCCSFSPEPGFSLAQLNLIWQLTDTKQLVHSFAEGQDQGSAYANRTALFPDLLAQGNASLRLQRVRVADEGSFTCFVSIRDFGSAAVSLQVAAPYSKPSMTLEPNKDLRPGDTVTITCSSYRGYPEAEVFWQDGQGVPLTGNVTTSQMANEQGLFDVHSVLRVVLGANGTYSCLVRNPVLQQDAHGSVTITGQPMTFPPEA
As to the kind of experiment: Specificity.

B1: PRCA157 (antibody, IgG1, V domains shown)
VH: EVQQVESGGDLVKPGGSLKLSCAASGFTFSSYGMSWVRQTPDKRLEWVATINSGGSNTYYPDSLKGRFTISRDNAKNTLYLQMRSLKSEDTAMYYCARHDGGAMDYWGQGTSVTVSS
VL: DIQMTQSPASLSVSVGETVTITCRASESIYSYLAWYQQKQGKSPQLLVYNTKTLPEGVPSRFSGSGSGTQFSLKINSLQPEDFGRYYCQHHYGTPPWTFGGGTNLEIK
notes: murine mAb, IgG1/k
For B1, the binding result with soluble B7H3-4Ig and with soluble B7H3-2Ig was “binds” in each case.

B2: BRCA84D (antibody, IgG1, V domains shown)
VH: DVQLVESGGGLVQPGGSRKLSCAASGFTFSSFGMHWVRQAPEKGLEWVAYISSDSSAIYYADTVKGRFTISRDNPKNTLFLQMTSLRSEDTAMYYCGRGRENIYYGSRLDYWGQGTTLTVSS
VL: DIAMTQSQKFMSTSVGDRVSVTCKASQNVDTNVAWYQQKPGQSPKALIYSASYRYSGVPDRFTGSGSGTDFTLTINNVQSEDLAEYFCQQYNNYPFTFGSGTKLEIK
notes: murine mAb, IgG1/k; fluorescein-labeled in the FACS MFI columns
Regarding B2, the binding result with soluble B7H3-4Ig and with soluble B7H3-2Ig was “binds” each time.
